Source: patent US20210246218A1 (LYVGEN BIOPHARMA SUZHOU, published 2021)

What was measured:
Assay in all cases: flow cytometry on CHO cells over-expressing the target
[1] = target: T1, human CD200R1 on CHO cells (human, UniProt Q8TD46 25-348)
T1 construct: whole, on cells
T1 sequence (looked up): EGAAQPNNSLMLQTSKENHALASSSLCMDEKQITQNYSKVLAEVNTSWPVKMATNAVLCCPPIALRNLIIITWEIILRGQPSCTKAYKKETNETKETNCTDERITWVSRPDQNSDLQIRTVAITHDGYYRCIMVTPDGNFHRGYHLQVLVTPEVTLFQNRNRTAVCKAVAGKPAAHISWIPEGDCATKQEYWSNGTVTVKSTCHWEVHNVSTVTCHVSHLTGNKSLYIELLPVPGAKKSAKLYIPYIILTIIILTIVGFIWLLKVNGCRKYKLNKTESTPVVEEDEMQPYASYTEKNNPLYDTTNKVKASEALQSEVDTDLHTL
Experimental: (§1) The cells were resuspended in ice cold assay buffer at 2*10\hat{ }6/mL and transferred to 96-well V-bottom plate with 100 μL/well. […] The plate was incubated in the dark for 2 hours at 4° C. The cells were washed 3 times by centrifugation at 1000 g for 3 min and resuspended in 100 μL ice cold assay buffer containing goat F(ab′)₂ anti-human IgG-Fc (PE) or PE goat anti-mouse IgG antibody. The plate was incubated in the dark for another 1 hour at 4° C. The cells were washed 2 times by centrifugation at 1000 g for 3 min and resuspended in ice cold assay buffer containing 2% PFA and analyzed on the flow cytometer immediately.

human PD-L1 on CHO cells = target: T2, human PD-L1 on CHO cells (human, UniProt Q9NZQ7 19-290)
T2 construct: whole, on cells
T2 sequence (Q9NZQ7 19-290): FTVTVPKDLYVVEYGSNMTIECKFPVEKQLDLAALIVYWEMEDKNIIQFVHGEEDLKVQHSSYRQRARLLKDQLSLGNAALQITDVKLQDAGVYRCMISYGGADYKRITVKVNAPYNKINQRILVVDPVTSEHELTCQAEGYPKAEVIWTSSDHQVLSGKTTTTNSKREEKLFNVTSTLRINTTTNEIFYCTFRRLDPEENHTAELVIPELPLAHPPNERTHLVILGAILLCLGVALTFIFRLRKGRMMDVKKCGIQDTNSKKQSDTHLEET
Experimental: as §1

human CD40 on CHO cells = target: T3, human CD40 on CHO cells (human, UniProt P25942 21-277)
T3 construct: whole, on cells
T3 sequence (P25942 21-277): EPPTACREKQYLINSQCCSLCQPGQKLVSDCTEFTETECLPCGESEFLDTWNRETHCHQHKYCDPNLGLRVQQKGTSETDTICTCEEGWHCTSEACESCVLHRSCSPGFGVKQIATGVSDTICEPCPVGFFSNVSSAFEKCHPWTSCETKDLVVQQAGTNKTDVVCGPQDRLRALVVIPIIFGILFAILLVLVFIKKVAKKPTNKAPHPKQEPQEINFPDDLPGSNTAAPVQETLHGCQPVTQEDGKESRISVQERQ
Experimental: as §1

human TIGIT on CHO cells = target: T4, human TIGIT on CHO cells (human, UniProt Q495A1 22-244)
T4 construct: whole, on cells
T4 sequence (looked up): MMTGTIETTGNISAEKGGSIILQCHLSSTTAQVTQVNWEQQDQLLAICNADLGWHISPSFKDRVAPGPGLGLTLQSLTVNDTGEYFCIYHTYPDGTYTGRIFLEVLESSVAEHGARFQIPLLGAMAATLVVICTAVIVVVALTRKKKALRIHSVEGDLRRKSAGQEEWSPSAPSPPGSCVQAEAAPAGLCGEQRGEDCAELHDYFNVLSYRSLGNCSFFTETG
Experimental: as §1

human VISTA on CHO cells = target: T5, human VISTA on CHO cells (human, UniProt Q9H7M9 33-311)
T5 construct: whole, on cells
Experimental: as §1

human PD-1 on CHO cells = target: T6, human PD-1 on CHO cells (human, UniProt Q15116 25-288)
T6 construct: whole, on cells
T6 sequence (Q15116 25-288): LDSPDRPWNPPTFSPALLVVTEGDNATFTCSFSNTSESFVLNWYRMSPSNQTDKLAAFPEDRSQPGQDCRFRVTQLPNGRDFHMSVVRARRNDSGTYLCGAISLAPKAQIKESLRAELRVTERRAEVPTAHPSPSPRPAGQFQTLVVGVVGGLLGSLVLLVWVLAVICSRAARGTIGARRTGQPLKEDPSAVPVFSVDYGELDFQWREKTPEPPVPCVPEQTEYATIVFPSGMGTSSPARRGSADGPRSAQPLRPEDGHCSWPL
Experimental: as §1

human B7-H4 on CHO cells = target: T7, human B7-H4 on CHO cells (human, UniProt Q7Z7D3 25-282)
T7 construct: whole, on cells
T7 sequence (looked up): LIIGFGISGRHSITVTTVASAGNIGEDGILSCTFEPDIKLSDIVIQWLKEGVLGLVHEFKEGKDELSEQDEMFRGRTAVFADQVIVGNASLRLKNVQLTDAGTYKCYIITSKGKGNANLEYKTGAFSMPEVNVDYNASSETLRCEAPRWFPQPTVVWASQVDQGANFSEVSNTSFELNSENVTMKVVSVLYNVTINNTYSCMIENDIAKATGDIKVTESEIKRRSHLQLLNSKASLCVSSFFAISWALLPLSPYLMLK
Experimental: as §1

human B7-H3 on CHO cells = target: T8, human B7-H3 on CHO cells (human, UniProt Q5ZPR3 29-534)
T8 construct: whole, on cells
T8 sequence (looked up): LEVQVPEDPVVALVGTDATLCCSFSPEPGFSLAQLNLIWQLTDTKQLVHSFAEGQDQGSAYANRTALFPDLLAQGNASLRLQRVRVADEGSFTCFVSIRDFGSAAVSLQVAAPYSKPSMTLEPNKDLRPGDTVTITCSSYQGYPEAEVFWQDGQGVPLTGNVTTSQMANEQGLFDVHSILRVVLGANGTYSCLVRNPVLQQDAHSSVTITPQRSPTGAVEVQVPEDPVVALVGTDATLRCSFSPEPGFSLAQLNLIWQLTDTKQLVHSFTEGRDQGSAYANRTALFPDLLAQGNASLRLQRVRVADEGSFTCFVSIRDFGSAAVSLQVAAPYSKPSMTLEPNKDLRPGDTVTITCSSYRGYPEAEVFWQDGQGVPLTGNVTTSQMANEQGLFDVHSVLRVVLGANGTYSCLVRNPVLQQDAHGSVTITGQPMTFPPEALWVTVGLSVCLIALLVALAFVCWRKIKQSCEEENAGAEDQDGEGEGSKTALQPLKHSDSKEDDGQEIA
Experimental: as §1

human CD19 on CHO cells = target: T9, human CD19 on CHO cells (human, UniProt P15391 20-556)
T9 construct: whole, on cells
T9 sequence (looked up): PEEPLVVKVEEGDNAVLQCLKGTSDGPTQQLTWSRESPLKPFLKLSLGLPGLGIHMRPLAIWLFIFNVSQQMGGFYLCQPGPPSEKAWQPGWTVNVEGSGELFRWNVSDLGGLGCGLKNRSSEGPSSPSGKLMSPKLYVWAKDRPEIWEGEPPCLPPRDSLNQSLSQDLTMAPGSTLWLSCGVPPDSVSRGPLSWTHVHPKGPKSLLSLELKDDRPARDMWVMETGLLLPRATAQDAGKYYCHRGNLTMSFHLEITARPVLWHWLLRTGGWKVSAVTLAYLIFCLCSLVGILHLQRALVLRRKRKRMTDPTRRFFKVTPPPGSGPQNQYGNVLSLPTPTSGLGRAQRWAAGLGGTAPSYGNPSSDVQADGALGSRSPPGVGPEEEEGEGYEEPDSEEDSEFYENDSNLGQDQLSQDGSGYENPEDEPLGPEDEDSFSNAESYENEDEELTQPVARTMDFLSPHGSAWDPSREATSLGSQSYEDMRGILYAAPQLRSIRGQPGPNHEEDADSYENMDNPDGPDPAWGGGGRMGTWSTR
Experimental: as §1

- binding result (human PD-L1 on CHO cells): no binding
- binding result (human CD40 on CHO cells): no binding
- binding result (human TIGIT on CHO cells): no binding
- binding result (human VISTA on CHO cells): no binding
- binding result (human PD-1 on CHO cells): no binding
- binding result (human B7-H4 on CHO cells): no binding
- binding result (human B7-H3 on CHO cells): no binding
- binding result (human CD19 on CHO cells): no binding
B1: Clone 3712-IgG1v (IgG1v/kappa) (antibody)
heavy: QVQLVQSGAEVKKPGASVKVSCKASGYTFAGFEMHWVRQAPGQGLEWMGAIDPKTGGTDYNQKFKDRVTMTRDTSISTAYMELSRLRSDDTAVYYCARDLGYFDVWGQGTLVTVSSASTKGPSVFPLAPSSKSTSGGTAALGCLVKDYFPEPVTVSWNSGALTSGVHTFPAVLQSSGLYSLSSVVTVPSSSLGTQTYICNVNHKPSNTKVDKKVEPKSCDKTHTCPPCPAPELLGPSVFLFPPKPKDTLMISRTPEVTCVVVDVEHEDPEVKFNWYVDGVEVHNAKTKPREEQYNSTYRVVSVLTVLHQDWLNGKEYKCKVSNKALPAPIEKTISKAKGQPREPQVYTLPPSREEMTKNQVSLTCLVKGFYPSDIAVEWESNGQPENNYKTTPPVLDSDGSFFLYSKLTVDKSRWQQGNVFSCSVMHEALHNHYTQKSLSLSPGK
light: DIQMTQSPSSLSASVGDRVTITCRASQDIRSNLNWYQQKPGGAVKLLIYYTSRLHSGVPSRFSGSGSGTDYTLTISSLQPEDFATYFCQQSEKLPRTFGGGTKVEIRRTVAAPSVFIFPPSDEQLKSGTASVVCLLNNFYPREAKVQWKVDNALQSGNSQESVTEQDSKDSTYSLSSTLTLSKADYEKHKVYACEVTHQGLSSPVTKSFNRGEC
notes: copies: 2 + 2
- binding result [1]: no binding
